Experimental data taken from patent US6107069A, “Recombinant kynurenine-3-hydroxylase enzyme and process for its preparation” (priority 1996, dated 2000).

How the values were obtained:
[1] = Activity of recombinant kyn-3-OHase expressed in E. coli (conversion of L-kyn to 3-OH-Kyn); type: biochemical, human; details: cells induced 2 h at 37° C. with 1 mM IPTG; 500 μM L-kyn, 1 hour at 37° C.
Method: Recombinant kyn-3-OHase activity measured in cells grown at 37° C. until the OD600 reached 0.6, induced for 2 hours at 37° C. adding 1 mM IPTG was about 10 nmol/h·mg protein, enzymatic activity of uninduced cells in the same conditions was less than 5% (homogenates incubated for 1 hour at 37° C. with 500 μM L-kyn; see Example 5c).

[2] = Rat kyn-3-OHase activity expressed in X. laevis oocytes (conversion of L-kyn to 3-OH-Kyn); type: biochemical
Method: Individual oocytes of stages were obtained by gentle agitation in ND solution plus 1-2mg/ml collagenase for 60-90 min. They were then maintained at 18° C. in ND solution enriched with 1.8 mM CaCl2 and 20 mg/l gentamycin. Oocytes of stages 5 and 6 were injected 24 hours later with 50 nl RNA or water (N. Dascal and I. Lotan 1992. Methods in Mol. Biol. 13: 205-225).
Oocytes were injected with a Drummond Nanoject microdispenser. To avoid accidental injection into the nucleus, the needle was inserted close to the equator or in the vegetal (light) half of the oocytes. 1-3 days after injection the oocytes were assayed for kyn-3-OHase.
Plasmid DNA was isolated by standard procedures (alkaline lysis followed by a purification on Qiagen resin; Kontron Zurich). Plasmids were linearized with Not I and used for in vitro synthesis and capping of cRNA using T7 RNA polymerase (Stratagene) and following the supplier's instructions. Initially the library was divided into 25 pools of ~2000 colonies; cRNA obtained transcribing the insert of each pool of colonies was injected in the oocytes and screened for the expressed kyn-3-Ohase activity (See Example 1c for the methods). The positive pool identified for its kyn-3-OHase expressed activity (175 pmoles/h/mg protein: about 30 fold higher than that induced by the injection of total kidney poly (A)^+ RNA) was then split into several sub-pools and assayed with the same procedure.
Xenopus l. oocytes were first injected with 25 ng of poly(A)^+ RNA isolated from rat kidney.
Increasing doses (range 0.1-25 ng) of cRNA, obtained from the positive clone, were injected into oocytes which were then tested for kyn-3-OHase activity in the presence of 100 mM of L-kyn. A linear dose-dependent effect was observed up to 5 ng cRNA/oocyte. At this dose the kyn-3-OHase activity was 35.7 nmoles/h/mg protein. No further increase of the activity was measured when higher cRNA doses were injected.

[3] = 5 steps purification from rat liver (Nisimoto 1975); cited from earlier work
[4] = purified from rat liver (Nisimoto 1975); cited from earlier work
[5] = last round of library screening, cRNA-injected oocytes

B1: Recombinant kyn-3-OHase: human kynurenine-3-hydroxylase, deduced protein of 486 amino acid residues, expressed in E. coli (protein, UniProt O15229 1-486, looked up)
Kynurenine 3-monooxygenase: MDSSVIQRKKVAVIGGGLVGSLQACFLAKRNFQIDVYEAREDTRVATFTRGRSINLALSHRGRQALKAVGLEDQIVSQGIPMRARMIHSLSGKKSAIPYGTKSQYILSVSRENLNKDLLTAAEKYPNVKMHFNHRLLKCNPEEGMITVLGSDKVPKDVTCDLIVGCDGAYSTVRSHLMKKPRFDYSQQYIPHGYMELTIPPKNGDYAMEPNYLHIWPRNTFMMIALPNMNKSFTCTLFMPFEEFEKLLTSNDVVDFFQKYFPDAIPLIGEKLLVQDFFLLPAQPMISVKCSSFHFKSHCVLLGDAAHAIVPFFGQGMNAGFEDCLVFDELMDKFSNDLSLCLPVFSRLRIPDDHAISDLSMYNYIEMRAHVNSSWFIFQKNMERFLHAIMPSTFIPLYTMVTFSRIRYHEAVQRWHWQKKVINKGLFFLGSLIAISSTYLLIHYMSPRSFLRLRRPWNWIAHFRNTTCFPAKAVDSLEQISNLISR
[1]
  Recombinant kyn-3-OHase activity: about 10 nmol/h·mg protein

B2: positive clone: cDNA clone encoding rat kyn-3-OHase, a deduced protein of 478 amino acid residues, expressed in Xenopus oocytes (protein)
chain: MASSDTEGKRVVVIGGGLVGALNACFLAKRNFQVDVYEAREDIRVANFMRGRSINLALSYRGRQALKAVGLEDQIVSKGVPMKARMIHSLSGKKSAIPYGNKSQYILSISREKLNKDLLTAVESYPNAKVHFGHKLSKCCPEEGILTMLGPNKVPRDITCDLIVGCDGAYSTVRAHLMKKPRFDYSQQYIPHGYMELTIPPKNGEYAMEPNCLHIWPRNAFMMIALPNMDKSFTCTLFMSFEEFEKLPTHSDVLDFFQKNFPDAIPLMGEQALMRDFFLLPAQPMISVKCSPFHLKSRCVLMGDAAHAIVPFFGQGMNAGFEDCLVFDELMDKFNNDLSVCLPEFSRFRIPDDHAISDLSMYNYIEMRAHVNSRWFLFQRLLDKFLHALMPSTFIPLYTMVAFTRIRYHEAVLRWHWQKKVINRGLFVLGSLVAIGSAYILVHHLSPRPLELLRSAWTGTSGHWNRSADISPRVPWSH
[2]; 5 ng cRNA/oocyte, 100 mM of L-kyn
  kyn-3-OHase activity, cRNA dose-response: 35.7 nmoles/h/mg protein
[2]; [5]
  activity vs that induced by injection of total rat kidney poly(A)+ RNA: about 400 fold
  kyn-3-OHase activity, single positive clone: 3747 pmoles/h/mg protein

B3: kyn-3-OHase: kyn-3-OHase isolated from the mitochondrial outer membrane of rat liver, molecular weight of 200,000 Da (protein)
chain: MASSDTEGKRVVVIGGGLVGALNACFLAKRNFQVDVYEAREDIRVANFMRGRSINLALSYRGRQALKAVGLEDQIVSKGVPMKARMIHSLSGKKSAIPYGNKSQYILSISREKLNKDLLTAVESYPNAKVHFGHKLSKCCPEEGILTMLGPNKVPRDITCDLIVGCDGAYSTVRAHLMKKPRFDYSQQYIPHGYMELTIPPKNGEYAMEPNCLHIWPRNAFMMIALPNMDKSFTCTLFMSFEEFEKLPTHSDVLDFFQKNFPDAIPLMGEQALMRDFFLLPAQPMISVKCSPFHLKSRCVLMGDAAHAIVPFFGQGMNAGFEDCLVFDELMDKFNNDLSVCLPEFSRFRIPDDHAISDLSMYNYIEMRAHVNSRWFLFQRLLDKFLHALMPSTFIPLYTMVAFTRIRYHEAVLRWHWQKKVINRGLFVLGSLVAIGSAYILVHHLSPRPLELLRSAWTGTSGHWNRSADISPRVPWSH
[3]
  specific activity of purified enzyme: 140 nmol/min/mg
[4]
  isoelectric point: 5.4 pH
